PMC7689490, “Designed CXCR4 mimic acts as a soluble chemokine receptor that blocks atherogenic inflammation by agonist-specific targeting” (Nature Communications, 2020)
Several values for one entry are separate records, joined by “and”; a condition that tells them apart may be missing. Equal values may be shown once.

Assays:
[1] = biological target: Fluos-msR4M-LS (fluorescein-labelled ECL1[97–110] and ECL2[182–196] joined only by a disulfide bridge, no synthetic linker) (human), P61073; assay: other fluorescence titration; Fluos-labelled CXCR4 ectodomain peptide at 5 nM titrated with unlabelled MIF, MIF(10xAla), CXCL12 or MIF peptide fragments; 10 mM sodium phosphate, pH 7.4, 1% HFIP; emission at 522 nm; apparent KD, 1/1 binding model; conditions: remark: other sources report otherwise
[2] = biological target: Fluos-msR4M-LS (human), P61073; assay: other fluorescence titration; 5 nM Fluos-labeled ectodomain peptide titrated with unlabeled MIF, MIF peptide or CXCL12; 10 mM sodium phosphate, pH 7.4, 1% HFIP; emission at 522 nm; apparent KD, 1/1 binding model; one constant for each of three curves; conditions: remark: other sources report otherwise

B1: macrophage migration-inhibitory factor (MIF), recombinant human, unlabelled, P14174 1-115 (natural protein)
chain: MPMFIVNTNVPRASVPDGFLSELTQQLAQATGKPPQYIAVHVVPDQLMAFGGSSEPCALCSLHSIGKIGGAQNRSYSKLLCGLLAERLRISPDRVYINYYDMNAANVGWNNSTFA
modifications: here or on the partner: disulfide bridge from Cys-109 to Cys-186 of the ECL2 chain; C-terminal amide; Fluos (fluorescein) label, chain and position not stated | disulfide bridge from Cys-186 to Cys-109 of the ECL1 chain; C-terminal amide
B1 gave a Kd [1] of 6.9 nM.

B2: macrophage migration-inhibitory factor (MIF), recombinant human, P14174 1-115 (natural protein)
chain: B1 chain
modifications: here or on the partner: disulfide bridge from Cys-109 to Cys-186 of the ECL2 chain; C-terminal amide; Fluos label on the molecule (chain and position not stated) | disulfide bridge from Cys-186 to Cys-109 of the ECL1 chain; C-terminal amide
With B2 the Kd [2] was 9 nM and 5 nM.
